Measured values from patent US20140242093A1, “METHODS AND COMPOSITIONS FOR MODULATING THE INNATE IMMUNE RESPONSE AND/OR MYOGENESIS IN A MAMMALIAN SUBJECT” (FRED HUTCHINSON CANCER RESEARCH CENTER, priority 2011, published 2014).

Tested on: Human myoblasts
Assay: Expression array of the innate immune response to lentiviral infection versus uninfected cells
Format: cell-based
Method: RNA was harvested from the lenti-viral infected cells and uninfected control cells at 24 hours after infection.

B1: DUX4-s: short splice form of DUX4 (SEQ ID NO:112), keeps the double-homeobox domains, lacks the C-terminal activation domain (protein, listed as Homo sapiens)
chain: MALPTPSDSTLPAEARGRGRRRRLVWTPSQSEALRACFERNPYPGIATRERLAQAIGIPEPRVQIWFQNERSRQLRQHRRESRPWPGRRGPPEGRRKRTAVTGSQTALLLRAFEKDRFPGIAAREELARETGLPESRIQIWFQNRRARHPGQGGRAPAQV
B1 was tested, and the “IFITM3 expression ratio vs GFP (.fc)” value (gene IFITM3 NM_021034.2, vs lenti-GFP, 24 hours after infection) was −0.13 log2 fold change, the “IFITM3 expression ratio vs NoLenti (.fc)” value (gene IFITM3 NM_021034.2, vs uninfected, 24 hours after infection) was 1.84 log2 fold change and the “IL1R1 expression ratio vs GFP (.fc)” value (gene IL1R1 NM_000877.2, vs lenti-GFP, 24 hours after infection) was 0.30 log2 fold change. For the same molecule, the “IL1R1 expression ratio vs NoLenti (.fc)” value (gene IL1R1 NM_000877.2, vs uninfected, 24 hours after infection) was 1.61 log2 fold change, the “IL7R expression ratio vs GFP (.fc)” value (gene IL7R NM_002185.2, vs lenti-GFP, 24 hours after infection) was 0.57 log2 fold change and the “IL7R expression ratio vs NoLenti (.fc)” value (gene IL7R NM_002185.2, vs uninfected, 24 hours after infection) was 2.05 log2 fold change. The “IL8 expression ratio vs GFP (.fc)” value (gene IL8 NM_000584.2, vs lenti-GFP, 24 hours after infection) was 1.19 log2 fold change, the “IL8 expression ratio vs NoLenti (.fc)” value (gene IL8 NM_000584.2, vs uninfected, 24 hours after infection) was 4.69 log2 fold change and the “IL18BP expression ratio vs GFP (.fc)” value (gene IL18BP NM_173042.2, vs lenti-GFP, 24 hours after infection) was 1.40 log2 fold change. The “IL18BP expression ratio vs NoLenti (.fc)” value (gene IL18BP NM_173042.2, vs uninfected, 24 hours after infection) was 3.37 log2 fold change, the “IRF7 expression ratio vs GFP (.fc)” value (gene IRF7 NM_004029.2, vs lenti-GFP, 24 hours after infection) was 1.14 log2 fold change and the “IRF7 expression ratio vs NoLenti (.fc)” value (gene IRF7 NM_004029.2, vs uninfected, 24 hours after infection) was 3.99 log2 fold change. For the same molecule, the “IRF9 expression ratio vs GFP (.fc)” value (gene IRF9 NM_006084.4, vs lenti-GFP, 24 hours after infection) was 0.29 log2 fold change, the “IRF9 expression ratio vs NoLenti (.fc)” value (gene IRF9 NM_006084.4, vs uninfected, 24 hours after infection) was 2.72 log2 fold change and the “MX1 expression ratio vs GFP (.fc)” value (gene MX1 NM_002462.2, vs lenti-GFP, 24 hours after infection) was 0.26 log2 fold change. For the same molecule, the “MX1 expression ratio vs NoLenti (.fc)” value (gene MX1 NM_002462.2, vs uninfected, 24 hours after infection) was 7.49 log2 fold change, the “NFIL3 expression ratio vs GFP (.fc)” value (gene NFIL3 NM_005384.2, vs lenti-GFP, 24 hours after infection) was 0.32 log2 fold change and the “NFIL3 expression ratio vs NoLenti (.fc)” value (gene NFIL3 NM_005384.2, vs uninfected, 24 hours after infection) was 2.16 log2 fold change. The “NFKBIA expression ratio vs GFP (.fc)” value (gene NFKBIA NM_020529.1, vs lenti-GFP, 24 hours after infection) was 0.28 log2 fold change, the “NFKBIA expression ratio vs NoLenti (.fc)” value (gene NFKBIA NM_020529.1, vs uninfected, 24 hours after infection) was 2.46 log2 fold change and the “NFKBIZ expression ratio vs GFP (.fc)” value (gene NFKBIZ NM_001005474.1, vs lenti-GFP, 24 hours after infection) was −0.26 log2 fold change. For the same molecule, the “NFKBIZ expression ratio vs NoLenti (.fc)” value (gene NFKBIZ NM_001005474.1, vs uninfected, 24 hours after infection) was 1.58 log2 fold change, the “STAT1 expression ratio vs GFP (.fc)” value (gene STAT1 NM_007315.2, vs lenti-GFP, 24 hours after infection) was 0.82 log2 fold change and the “STAT1 expression ratio vs NoLenti (.fc)” value (gene STAT1 NM_007315.2, vs uninfected, 24 hours after infection) was 4.79 log2 fold change. The “STAT2 expression ratio vs GFP (.fc)” value (gene STAT2 NM_005419.2, vs lenti-GFP, 24 hours after infection) was 0.19 log2 fold change, the “STAT2 expression ratio vs NoLenti (.fc)” value (gene STAT2 NM_005419.2, vs uninfected, 24 hours after infection) was 2.11 log2 fold change and the “TLR3 expression ratio vs GFP (.fc)” value (gene TLR3 NM_003265.2, vs lenti-GFP, 24 hours after infection) was 1.67 log2 fold change. For the same molecule, the “TLR3 expression ratio vs NoLenti (.fc)” value (gene TLR3 NM_003265.2, vs uninfected, 24 hours after infection) was 2.56 log2 fold change, the “TNFAIP2 expression ratio vs GFP (.fc)” value (gene TNFAIP2 NM_006291.2, vs lenti-GFP, 24 hours after infection) was 0.06 log2 fold change and the “TNFAIP2 expression ratio vs NoLenti (.fc)” value (gene TNFAIP2 NM_006291.2, vs uninfected, 24 hours after infection) was 1.06 log2 fold change. The “TNFAIP3 expression ratio vs GFP (.fc)” value (gene TNFAIP3 NM_006290.2, vs lenti-GFP, 24 hours after infection) was 0.28 log2 fold change, the “TNFAIP3 expression ratio vs NoLenti (.fc)” value (gene TNFAIP3 NM_006290.2, vs uninfected, 24 hours after infection) was 2.50 log2 fold change and the “TNFAIP6 expression ratio vs GFP (.fc)” value (gene TNFAIP6 NM_007115.2, vs lenti-GFP, 24 hours after infection) was 1.31 log2 fold change. The “TNFAIP6 expression ratio vs NoLenti (.fc)” value (gene TNFAIP6 NM_007115.2, vs uninfected, 24 hours after infection) was 5.10 log2 fold change, the “TNFRSF6B expression ratio vs GFP (.fc)” value (gene TNFRSF6B NM_032945.2, vs lenti-GFP, 24 hours after infection) was 0.01 log2 fold change and the “TNFRSF6B expression ratio vs NoLenti (.fc)” value (gene TNFRSF6B NM_032945.2, vs uninfected, 24 hours after infection) was 1.32 log2 fold change. For the same molecule, the “TNFRSF10A expression ratio vs GFP (.fc)” value (gene TNFRSF10A NM_003844.2, vs lenti-GFP, 24 hours after infection) was 0.84 log2 fold change, the “TNFRSF10A expression ratio vs NoLenti (.fc)” value (gene TNFRSF10A NM_003844.2, vs uninfected, 24 hours after infection) was 1.81 log2 fold change and the “TNFRSF14 expression ratio vs GFP (.fc)” value (gene TNFRSF14 NM_003820.2, vs lenti-GFP, 24 hours after infection) was 0.57 log2 fold change. The “TNFRSF14 expression ratio vs NoLenti (.fc)” value (gene TNFRSF14 NM_003820.2, vs uninfected, 24 hours after infection) was 1.78 log2 fold change, the “TNFSF10 expression ratio vs GFP (.fc)” value (gene TNFSF10 NM_003810.2, vs lenti-GFP, 24 hours after infection) was 2.97 log2 fold change and the “TNFSF10 expression ratio vs NoLenti (.fc)” value (gene TNFSF10 NM_003810.2, vs uninfected, 24 hours after infection) was 3.88 log2 fold change. The “TNFSF13B expression ratio vs GFP (.fc)” value (gene TNFSF13B NM_006573.3, vs lenti-GFP, 24 hours after infection) was 2.19 log2 fold change, the “TNFSF13B expression ratio vs NoLenti (.fc)” value (gene TNFSF13B NM_006573.3, vs uninfected, 24 hours after infection) was 3.78 log2 fold change and the “number of the 341 lenti-GFP induced genes induced 2-fold or more” value (vs uninfected cells, 24 hours) was 315 genes.
